Columns and labels:
peptide YEEIP = test system: T1, peptide YEEIP
T1 sequence: YEEIP

peptide YVPM = test system: T2, peptide YVPM
T2 sequence: YVPM

peptide YEEI = test system: T3, peptide YEEI
T3 sequence: YEEI

peptide YEE = test system: T4, peptide YEE
T4 sequence: YEE

Src kinase, p60c-src = molecular target: T5, Src kinase, p60c-src (Homo sapiens, UniProt P12931); assay: protein kinase reaction on peptide chip, phosphorylation detected by cy3-Pro-Q staining; format: biochemical; conditions: pH7.5, 0.07 mM ATP, 25° C. for 30 min
T5 construct: purchased Invitrogen
Description: FIG. 8 is a fluorescence image of a protein kinase reaction on pY-phosphopeptide chip. The experiment used Src kinase, p60c-src (Invitrogen). The chip included 23 known kinase substrates and their sequence variants, which vary in length and composition, a number of position and negative control sequences, and a few artificial peptide sequences. For each substrate peptide, at the phosphorylation position, Tyr (Y) in YEEI, for instance, three sequences are present, which are YEEI, pYEEI and AEEI. pY-containing sequences are directly synthesized which are reference sequences for the Y-containing sequences (as the substrate for kinase reactions) There are also background sites which contain no peptides. 8-22 redundancies were present. The peptide sequences shown in the image are YVPM (column 1) and the YEEIP (column 2) related sequences in double replicates. These sequences are given on right of the image. […] Kinase reaction conditions and phosphorylation detection were: 10× enzyme storage solution (0.5 mg/ml). 50 ul reaction buffer, pH7.5 (50 HEPES, 0.1 mM EDTA, and 0.01% Brij 35, 0.1 mg/ml BSA, 0.1% beta-mercaptoethanol, 0.07 mM ATP, 10 mM MgCl2), 25° C. for 30 min. The array was stained by filling the array with 200 ul cy3-Pro-Q solution (phosphate staining reagent), standing at room temperature for 20 min. The chip was then washed with 2 ml destaining buffer, pH 4.0 (50 mM […], 20% acetonitrile) as recommended by the vendor. The image was obtained from a regular microarray scanner (Axon GenPix 4000B) and shown using inverted intensities after background subtraction.
The signal intensities were analyzed using the following equation:
Relative phosphorylation efficiency: fP =(IY−IA)/(IpY−IA)
For a peptide, I is the signal intensity, IY is for Y-containing sequence which undergoes phosphorylation by kinase,IpY is for the synthetic phosphopeptide, IA is for the sequence containing Y→A substitution. By using the positive controls (pY-sequence) and negative controls (A-sequence or other non-phosphorylation amino acids) to derive relative phosphorylation efficiency, fp as fraction or percentage, the kinase reaction results were analyzed quantitatively. The method takes the advantage of addressable peptide array for reducing false positive readout and improves reliability of the data analysis.

Substance | phosphorylation by Src kinase (substrate reactivity) (Src kinase, p60c-src) | also measured
Src kinase, p60c-src (Invitrogen) | – | phosphorylation on peptide chip, cy3-Pro-Q phosphate staining (peptide YEEIP): YEEIP is a substrate of lower reactivity; phosphorylation on peptide chip, cy3-Pro-Q phosphate staining (peptide YVPM): YVPM has the lowest reactivity; phosphorylation on peptide chip, cy3-Pro-Q phosphate staining (peptide YEEI): YEE and YEEI are phosphorylated by the Sic kinase used; phosphorylation on peptide chip, cy3-Pro-Q phosphate staining (peptide YEE): YEE and YEEI are phosphorylated by the Sic kinase used
YEE | phosphorylated | –
YEEI | phosphorylated | –
YEEIP | substrate of lower reactivity | –
YVPM | lowest reactivity | –

Source: patent US20100210478A1, “MAKE AND USE OF SURFACE MOLECULES OF VARIED DENSITIES” (priority 2006, published 2010)
